# According to patent US20210162014A1 (CASE WESTERN RESERVE UNIVERSITY, published 2021):
# Several values for one entry are separate records, joined by “and”; a condition that tells them apart may be missing. Equal entries are not always repeated. Bridges are numbered along the chain shown (N, C = ends). Where no end group is shown, it is not given here.
# B1: 4SS 81-04 (57mer single-chain insulin analogue containing a fourth disulfide bridge between residues B4 and A10) (ligand)
# chain: FVNCHLCGSHLVEALYLVCGERGFFYTDPTEEGPRRGIVEQCCHSCCSLEQLENYCN
# modifications: disulfide 19-56, 4-46, 42-47, 7-43
# notes: Single-chain insulin analogue, 57 residues, C domain EEGPRR; also called analogue 4SS 81-04
# How the values were obtained:
# [1] = molecular target: IGF Type I receptor (IGF-1R) (UniProt P08069); test: receptor affinity (method not described), relative to wild-type insulin
# [2] = molecular target: B isoform of the insulin receptor (UniProt P06213); test: receptor affinity (method not described), relative to wild-type human insulin
# [3] = molecular target: T1, A isoform of the insulin receptor (UniProt P06213-2 28-1370, limits assumed); test: as above
# T1 construct: Isoform A is the short isoform lacking exon 11; also called IR-A
# [4] = molecular target: T1, A isoform of the insulin receptor; test: receptor-binding affinity assay (method not described; data not shown), relative to wild-type human insulin
# [5] = substrate: B isoform of the insulin receptor (UniProt P06213); test: receptor-binding affinity assay (method not described), relative to wild-type human insulin
Molecule,fold reduction in affinity relative to wild-type insulin [1] [fold],affinity relative to wild-type human insulin (percent) [2] [%],affinity relative to wild-type human insulin (percent) [3] [%],affinity relative to human insulin (percent) [4] [percent],fold reduction in affinity relative to wild-type human insulin [5]
59-mer SCI with C domain EEGSRRSR ('this SCI' of paragraph 30) (ligand),10,10 to 150,10 to 150,,
B1,,,,120,5 fold and 10 fold
